# Results published in US20190367592A1 (AC IMMUNE, published 2019).
# Substitutions are numbered along the chain they refer to. “And” between values parts separate entries of the source, which are not always exact repeats. Equal values may be shown once.
# B1: hu125B11 HC1 + hu113F5-F7 LC3 (antibody, V domains shown)
# VH: EVQLVESGGGLVQPGGSLRLSCAASRFIFSNYWMNWVRQAPGKGLEWVAQIRLKSDNYATHYAESVKGRFTISRDDSKNTVYLQMNSLRAEDTAVYYCTGGTTYWGQGTLVTVSS
# VL: DIQMTQSPSSLSASVGDRVTITCKASQNVGTAVAWYQQKPGKSPKLLIYSASRRFSGVPSRFSGSGSGTDFTLTISSLQPEDFATYYCQQFSTYPYTFGQGTKVEIK
# B2: hu125B11 HC1 + 125B11 LC2 (antibody, V domains shown)
# VH: B1 VH
# VL: B1 VL with S43A, R53I, F55Y, S56T, Y87F, S92R
# B3: hu125B11 HC1 + 125B11 LC4 (antibody, V domains shown)
# VH: B1 VH
# VL: B1 VL with S43A, R53I, F55Y, S56T, S92R
# B4: hu125B11 HC1 + hu113F5-F7 LC1 (antibody, V domains shown)
# VH: B1 VH
# VL: B1 VL with Y87F
# B5: hu125B11 HC1 + 125B11 LC1 (antibody, V domains shown)
# VH: B1 VH
# VL: B1 VL with R53I, F55Y, S56T, Y87F, S92R
# B6: hu125B11 HC1 + 125B11 LC3 (antibody, V domains shown)
# VH: B1 VH
# VL: B1 VL with R53I, F55Y, S56T, S92R
# B7: 30G1-B2 (antibody, mouse IgG2a, V domains shown)
# VH: QVQLQQSGAELVRPGASVTLSCKASGYTFTDYEMYWVKQTPVHGLEWIGAIDPETGDTAYNQKFKGKATLTADKSSNTAYMELRSLTSEDSAVYYCIRQYGNWFPYWGQGTLVTVSA
# VL: DVVMTQTPLSLPVSLGDQASISCRSSQSLVHANGNTYLHWFLQKPGLSPKLLIYKVSNRFSGVPDRFSGGGSGTDFTLKITRLEAEDLGVYFCSQSTHVPFTFGSGTKLEIK
# B8: 66F5-A1 (antibody, mouse IgG2a, V domains shown)
# VH: QVQLQQSGAELVRPGASVTLSCKASGYTFIDYEMNWVKQTPVHGLEWIGAIDPENGGTAYNQKFKGKAIVTADKSSSTAYMELRSLTSEDSAVYYCSGPHFDYWGQGTTLTVSS
# VL: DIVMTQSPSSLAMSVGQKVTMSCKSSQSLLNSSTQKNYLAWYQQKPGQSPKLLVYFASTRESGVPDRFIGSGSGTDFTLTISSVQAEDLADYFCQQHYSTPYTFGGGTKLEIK
# B9: 26C1 (antibody, mouse IgG2a, V domains shown)
# VH: EVHLQQSGAELVRSGASVKLSCTASGFNIKDYYMYWVKQRPEQGLEWIGWIDPENGDTEYFPKFQGKATMTADTSSKTAYLQLSSLTSEDTAVYYCNAWRARATNSALDYWGQGTSVTVSS
# VL: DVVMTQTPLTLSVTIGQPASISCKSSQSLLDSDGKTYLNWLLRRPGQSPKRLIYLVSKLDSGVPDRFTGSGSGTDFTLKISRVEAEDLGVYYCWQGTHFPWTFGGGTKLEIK
# notes: recombinant murine IgG2a/kappa; label without subclone
# B10: 11E10-B8 (antibody, mouse IgG2a, V domains shown)
# VH: EVQLVESGGDLVKPGGSLKLSCAASGFTFRSYGMSWVRQTPDKRLEWVATISGGGSYTYYPDSVKGRFTISRDNAKNTLYLQMSSLKSEDTAMYYCAVSYDGAMDYWGQGTSVTVSS
# VL: DVLMTQTPLSLPVSLGDQASISCRSSQSIVHSNGNTYLEWYLQKPGQSPKLLIYKVSNRFSGVPDRFSGSGSGTDFTLKISRVEAEDLGLYYCFQGSHVPWTFGGGTKLEIK
# B11: hu37D3-H9.v5.1 (antibody, V domains shown)
# VH: EVQLVESGGGLVQPGGSLRLSCAASGLIFRSYGMSWVRQAPGKGLEWVATINSGGTYTYYPDSVKGRFTISRDNSKNTLYLQMNSLRAEDTAVYYCANSYSGAMDYWGQGTLVTVSS
# VL: EDVLTQTPLSLPVTPGQPASISCRSSQSIVHSNANTYFEWYLQKPGQSPQLLIYKVSNRFSGVPDRFSGSGSGTDFTLKISRVEAEDVGVYYCFQGSLVPWTFGQGTKVEIK
# B12: hu37D3.v28.A16 (antibody, V domains shown)
# VH: B11 VH
# VL: B11 VL with E1D, D2V, A34G
# B13: hu37D3.v28.A28 (antibody, V domains shown)
# VH: B11 VH
# VL: B11 VL with E1D, D2V, L4M, A34G, F38L
# B14: hu37D3.v28.A24 (antibody, V domains shown)
# VH: B11 VH
# VL: B11 VL with E1D, D2V, L4M, A34G
# B15: hu37D3.v28.A22 (antibody, V domains shown)
# VH: B11 VH
# VL: B11 VL with E1D, D2V, A34G, F38L, L98H
# B16: hu37D3.v28.A8 (antibody, V domains shown)
# VH: B11 VH
# VL: B11 VL with E1D, L4M, A34G
# B17: hu37D3.v28.A26 (antibody, V domains shown)
# VH: B11 VH
# VL: B11 VL with E1D, D2V, L4M, A34G, L98H
# B18: hu37D3.v28.A18 (antibody, V domains shown)
# VH: B11 VH
# VL: B11 VL with E1D, D2V, A34G, L98H
# B19: hu37D3.v28.A10 (antibody, V domains shown)
# VH: B11 VH
# VL: B11 VL with E1D, L4M, A34G, L98H
# B20: hu37D3.v28.A20 (antibody, V domains shown)
# VH: B11 VH
# VL: B11 VL with E1D, D2V, A34G, F38L
# B21: hu37D3.v28.A14 (antibody, V domains shown)
# VH: B11 VH
# VL: B11 VL with E1D, L4M, A34G, F38L, L98H
# B22: hu37D3-H9.v30.11 (antibody, V domains shown)
# VH: B11 VH
# VL: B11 VL with E1D, N33R, A34G
# B23: hu37D3-H9.v30.10 (antibody, V domains shown)
# VH: B11 VH
# VL: B11 VL with E1D, N33K, A34G
# Biological target: T1, recombinant human Tau monomer, 2N4R isoform (amino acids 2-441) (human, UniProt P10636-8 2-441)
# T1 construct: range 2-441; N-terminal His-tag removed with TEV protease; also called monomeric Tau
# Experiment: SPR screen, hIgG captured, Tau monomer analyte
# Excerpt: Antibody 125B11-H3 was humanized onto VH3 and Vκ1 consensus frameworks. The heavy chain graft included murine residues at position 78 (Kabat numbering system). The Vκ1 graft included murine residues in framework positions 43 and 87. The light chain of 113F5-F7 was also humanized onto the Vκ1 framework, with additional murine residues at framework positions 43 and 87. Humanized variant heavy chains (125B11) and light chains (125B11 and 113F5-F7) were co-transfected in multiple combinations and purified in 96-well format as described above. Humanized variants were then screened for affinity for human Tau monomer using the Biacore human IgG capture kit, a Series S CM5 chip and a Biacore T200 instrument. Antibodies were diluted to 2 μg/ml and captured for 15 seconds at 10 μl/min. Association and dissociation of 0, 100 and 500 nM human Tau monomer in HBSP was monitored for 180s and 300s respectively at a flow rate of 40 μl/min. A 1:1 binding model was applied to the results (Table 9).
# T1 sequence (P10636 other isoform, or with tags, fused parts or gaps limits assumed): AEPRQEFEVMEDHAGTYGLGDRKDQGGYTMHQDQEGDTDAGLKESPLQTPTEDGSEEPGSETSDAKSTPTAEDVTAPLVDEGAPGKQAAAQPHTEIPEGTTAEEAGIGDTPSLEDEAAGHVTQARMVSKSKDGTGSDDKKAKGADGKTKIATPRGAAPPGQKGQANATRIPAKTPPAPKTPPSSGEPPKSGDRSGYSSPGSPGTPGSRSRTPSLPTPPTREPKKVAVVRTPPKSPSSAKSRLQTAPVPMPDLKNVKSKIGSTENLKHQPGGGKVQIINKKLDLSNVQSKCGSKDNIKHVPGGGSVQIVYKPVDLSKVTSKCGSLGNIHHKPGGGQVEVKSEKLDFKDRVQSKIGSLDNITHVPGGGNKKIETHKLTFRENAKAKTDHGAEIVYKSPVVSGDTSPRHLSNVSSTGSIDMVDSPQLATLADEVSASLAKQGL
row,Binder,Kd
1,B1,61 nM
2,B2,20 nM
3,B3,23 nM
4,B4,57 nM
5,B5,16 nM and 19 nM
6,B6,21 nM

# Biological target: T1, recombinant human Tau monomer, 2N4R …
# Experiment: SPR, mIgG2a captured, Tau monomer analyte, 1:1 fit
# Excerpt: Antibody heavy and light chains were constructed via gene synthesis and subcloning of the resulting DNA into murine IgG2a (heavy chain) and murine kappa (light chain) mammalian expression vectors. Antibodies were expressed in CHO or 293T cells by transient co-transfection of the heavy chain and light chain plasmids and were purified with affinity resin MabSelectSure (GE Healthcare Life Sciences). Purified recombinant antibodies were screened for binding to Tau monomer protein on a Biacore T200 surface plasmon resonance instrument using a mouse IgG capture kit and a Series S CM5 chip. Antibodies in mIgG2a format diluted in 10 mM HEPES pH7.4, 150 mM NaCl, 0.05% Tween 20 (running buffer, HBSP) were captured for 30 or 45 seconds at a concentration of 1 μg/ml (antibodies 26C1, 94B2-C1, 52F6-F11.v1, 52F6-F11.v2, 11E10-B8, 55E7-F11, 125B1-H3, 123E9-A1, 30G1-B2, 66F5-A1, 89F4-A1, 93A8-D2 and 126F11-G11) or for 70 or 150 seconds at a concentration of 0.1 μg/ml (antibodies 19H6-F7, 3A4-H4, 54C1-H11 and 37D3-H9) using a flow rate of 10 μl/min. […] Association and dissociation times were monitored for 180-480 seconds and for 300-600 seconds respectively. Antibody 37D3-H9 was selected for further analysis due to the high affinity (Table 6) and the absence of NXS/T glycosylation motifs in the CDRs.
Binder,Kd [nM],koff [s⁻¹],kon [M⁻¹ s⁻¹]
B7,20,0.008,400000
B8,105,0.008,80000
B9,17,0.0007,40000
B10,108,0.02,200000

# Biological target: T1, recombinant human Tau monomer, 2N4R …
# Experiment: SPR; Normalized Rmax post-stress (2 weeks 40 C) / pre-stress
# Description: (§1) Briefly, IgGs in 1 mL culuture were captured using tip columns that were custom packed with 20 μL MabSelect SuRe resin (Glygen Corp & GE Healthcare). After washing with 1×PBS pH 7.4, IgGs were eluted into 160 μL of 50 mM phosphoric acid pH 3 and neutralized with 12 μL of 20×PBS pH 11. MabSelect SuRe tip columns were stripped in 0.1 M NaOH and regenerated with 1×PBS pH 7.4 for consecutive use of up to 15 times. Purified antibodies in 96-well format were normalized to 0.1 mg/ml using a Hamilton Star liquid handling robot. The “pre-stress” samples were kept at approximately 4° C. and the “post-stress” samples were incubated at 40° C. for two weeks in a PCR machine. Functional stability of the variants was compared by running surface plasmon resonance kinetics experiments with the “pre-stress” and “post-stress” antibody preps. The antibodies were assessed using a human antibody capture CM5 Series S chip generated using the GE Biacore human IgG capture kit and a Biacore T200 instrument. Antibodies diluted to 2 μg/ml were immobilized using a 15 second injection time and 10 μl/min flow rate. Binding to Tau monomer at 0 nM, 26.5 nM and 265 nM, at 25° C., using a flow rate of 40 μl/min, was monitored for a 180 second association phase followed by a 300 second dissociation phase. Samples were run in 10 mM HEPES pH7.4, 150 mM NaCl, 0.05% Tween 20 (HBSP) using a multi-cycle kinetics format. Data was analyzed using BIAevaluation software, fitting a 1:1 binding model. The resulting affinity (KD) values are shown in FIG. 8A-D. A Stability Index was also calculated, using the rationale that affinity-compromised antibodies (due for example to deamidation of key residues) are expected to contribute equally to the IgG capture level (“Ligand Level”) but to contribute less to the measured Tau binding, and that this would be reflected in the experimentally derived value for Rmax. To account for variations in the amount of each antibody captured, Rmax was normalized for the antibody capture level (as measured by “Ligand Level”, Response Units immobilized during antibody capture). Thus Normalized Rmax is calculated as the experimental Rmax (units=RU) divided by the “Ligand Level” (Evaluation output representing the RU captured during the hIgG capture step, units=RU), and Stability Index is calculated here as Normalized Rmax (post-stress) divided by Normalized Rmax (pre-stress).
row,Binder,Stability Index [%]
1,B11,72
2,B12,89
3,B13,89
4,B14,95
5,B15,70
6,B16,57
7,B17,78
8,B18,83
9,B19,37
10,B20,93
11,B21,70
12,B22,86
13,B23,84

# Biological target: T1, recombinant human Tau monomer, 2N4R …
# Experiment: SPR, captured IgG, Tau monomer analyte, 1:1 model; fit-quality column: Yes
# Description: as §1
row,Binder,Kd [nM]
1,B11,4
2,B12,3.9
3,B13,11.4
4,B14,4.7
5,B15,27.8
6,B16,1.8
7,B17,22.5
8,B18,17.3
9,B19,41.8
10,B20,7.1
11,B21,51.4
12,B22,20.9
13,B23,16.1
